Source: patent publication US20130108602A1, “METHODS AND USES OF NUR77 AND NUR77 AGONISTS TO MODULATE MACROPHAGES AND MONOCYTES, AND TREAT INFLAMMATION, INFLAMMATORY DISEASE AND CARDIOVASCULAR DISEASE” (LA JOLLA INSTITUTE FOR ALLERGY AND IMMUNOLOGY, priority 2010, published 2013)

Legend:
Nur77 protein = Nur77 protein staining in primary human monocyte-derived macrophages; assay type: cell-based; conditions: at 24 hours, Gal-3BP 10 μg/ml
Nur77 mRNA = experiment: Nur77 (NR4A1) mRNA by real-time RT-PCR in human monocyte-derived macrophages; assay type: cell-based

B1: Gal-3BP: recombinant human galectin-3 binding protein (R&D) (protein, UniProt Q08380 19-585, looked up)
Galectin-3-binding protein: VNDGDMRLADGGATNQGRVEIFYRGQWGTVCDNLWDLTDASVVCRALGFENATQALGRAAFGQGSGPIMLDEVQCTGTEASLADCKSLGWLKSNCRHERDAGVVCTNETRSTHTLDLSRELSEALGQIFDSQRGCDLSISVNVQGEDALGFCGHTVILTANLEAQALWKEPGSNVTMSVDAECVPMVRDLLRYFYSRRIDITLSSVKCFHKLASAYGARQLQGYCASLFAILLPQDPSFQMPLDLYAYAVATGDALLEKLCLQFLAWNFEALTQAEAWPSVPTDLLQLLLPRSDLAVPSELALLKAVDTWSWGERASHEEVEGLVEKIRFPMMLPEELFELQFNLSLYWSHEALFQKKTLQALEFHTVPFQLLARYKGLNLTEDTYKPRIYTSPTWSAFVTDSSWSARKSQLVYQSRRGPLVKYSSDYFQAPSDYRYYPYQSFQTPQHPSFLFQDKRVSWSLVYLPTIQSCWNYGFSCSSDELPVLGLTKSGGSDRTIAYENKALMLCEGLFVADVTDFEGWKAAIPSALDTNSSKSTSSFPCPAGHFNGFRTVIRPFYLTNSSGVD
- Nur77 protein compared to control (Nur77 protein): massively increased
- time of peak Nur77 mRNA expression after addition (Nur77 mRNA; M-CSF-derived human macrophages (M0), Gal-3BP 10 μg/ml): 48 h
- NUR77 mRNA increase (Nur77 mRNA; M-CSF-derived human macrophages (M0), Gal-3BP 10 μg/ml, 0-72 hours, two independent studies): 3-4 fold
- NR4A1 expression induction (Nur77 mRNA; human primary macrophages, 6 hours after Gal-3BP, normalized to t=0, n=3): more than 6 fold
